Results published in PMC9250508 (2022).

Target: D614G RBD
Experiment: BLI

B1: AZD1061 Fab (Fab, V domains shown)
VH: EVQLVESGGGLVKPGGSLRLSCAASGFTFRDVWMSWVRQAPGKGLEWVGRIKSKIDGGTTDYAAPVKGRFTISRDDSKNTLYLQMNSLKTEDTAVYYCTTAGSYYYDTVGPGLPEGKFDYWGQGTLVTVSS
VL: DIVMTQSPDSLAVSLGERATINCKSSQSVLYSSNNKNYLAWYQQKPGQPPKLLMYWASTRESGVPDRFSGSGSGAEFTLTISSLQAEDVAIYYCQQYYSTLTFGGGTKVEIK
- Kd: 14.5 nM
- koff: 0.00217 s⁻¹

B2: AZD8895 Fab (Fab, V domains shown)
VH: QMQLVQSGPEVKKPGTSVKVSCKASGFTFMSSAVQWVRQARGQRLEWIGWIVIGSGNTNYAQKFQERVTITRDMSTSTAYMELSSLRSEDTAVYYCAAPYCSSISCNDGFDIWGQGTMVTVSS
VL: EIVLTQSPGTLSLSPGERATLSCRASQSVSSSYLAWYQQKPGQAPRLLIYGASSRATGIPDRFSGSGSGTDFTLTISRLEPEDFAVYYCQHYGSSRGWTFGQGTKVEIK
- Kd: 9.79 nM
- koff: 0.00603 s⁻¹
